Assays:
[1] = target: T1, EBNA2_(381–389) peptide with an additional Gly-Tyr dipeptide at the C-terminus (NH2-[…]-CONH2) (Epstein-Barr virus, strain B95-8, C-terminal amide (CONH2)); assay: ITC
[2] = target: T1, EBNA2_(381–389) peptide with an …; assay: ITC; N fixed to 1

Row | Binder | Kd [1] | Kd [2]
1 | QTKKKQWCYNCEEEAMAHCCWNTSYCSIKCQQEHWHAEHKRTCRRKR (domain or fragment) [BS69_(MYND) Y532A] | 64.5 µM | 
2 | QTKKKQWCYNCEEEAMYHCCWNTSYCSIKCQQEHWHAEHKRTCRAKR (domain or fragment) [BS69_(MYND) R560A] |  | ~279 µM

From article PMC4742278 (2016)
